According to PMC4837377 (Scientific Reports, 2016):

Biological target: PA (residues 1-716) of influenza A virus RNA-dependent RNA-polymerase (influenza A virus …, UniProt P31343 1-716)
Assay: SEC-SAXS
Settings: both partners purified

B1: PB1(1-686) of influenza A virus RNA-dependent RNA-polymerase (domain or fragment)
chain: MDVNPTLLFLKVPAQNAISTTFPYTGDPPYSHGTGTGYTMDTVNRTHQYSEKGKWTTNTETGAAQLNPIDGPLPEDNEPSGYAQTDCVLEAMAFLEESHPGIFENSCLETMEVVQQTRVDRLTQGRQTYDWTLNRNQPAATALANTIEVFRSNGLIANESGRLIDFLKDVIESMDKEEMEITTHFQRKRRVRDNMTKKMVTQRTIGKKKQRVNKRSYLIRALTLNTMTKDAERGKLKRRAIATPGMQIRGFVYFVETLARSICEKLEQSGLPVGGNEKKAKLANVVRKMMTNSQDTELSFTITGDNTKWNENQNPRMFLAMITYITKNQPEWFRNILSIAPIMFSNKMARLGKGYMFESKRMKLRTQIPAEMLASIDLKYFNESTRKKIEKIRPLLIDGTASLSPGMMMGMFNMLSTVLGVSILNLGQKKYTKTTYWWDGLQSSDDFALIVNAPNHEGIQAGVDRFYRTCKLVGINMSKKKSYINRTGTFEFTSFFYRYGFVANFSMELPSFGVSGINESADMSIGVTVIKNNMINNDLGPATAQMALQLFIKDYRYTYRCHRGDTQIQTRRSFELKKLWEQTRSKAGLLVSDGGPNLYNIRNLHIPEVCLKWELMDEDYQGRLCNPLNPFVSHKEIESVNNAVVMPAHGPAKSMEYDAVATTHSWIPKRNRSILNTSQRGILEDE
- stoichiometry N: 1
